Data set [1] concerns CC(=O)Oc1ccc([N+](=O)[O-])cc1. Kind of data set: purified protein. The settings on record: pH 7, 37°C.
Data set [2] relates to CCCC(=O)Oc1ccc([N+](=O)[O-])cc1. Kind of data set: purified protein. Conditions: pH 7, 37°C.
The subject of data set [3] is CCCCCC(=O)Oc1ccc([N+](=O)[O-])cc1. Kind of data set: purified protein. The settings on record: pH 7, 37°C.
In data set [4] the test system is CCC(=O)Oc1ccc([N+](=O)[O-])cc1. Kind of data set: purified protein. Conditions: pH 7, 37°C.
Substrate in data set [5]: CCC(=O)Oc1ccc([N+](=O)[O-])cc1
Description: pNP release, initial rates, Michaelis-Menten fit. The class given is biochemical, Rhodopseudomonas palustris. The settings on record: pH 9, 37°C.

Substrate in data set [6]: CC(=O)Oc1ccc([N+](=O)[O-])cc1
Kind of data set: pNP release, initial rates, Michaelis-Menten fit. The class given is biochemical, Rhodopseudomonas palustris. The settings on record: pH 9, 37°C.

Substrate in data set [7]: CC(=O)Oc1ccc([N+](=O)[O-])cc1
Description: pNP release, initial rates, Michaelis-Menten fit. The class given is biochemical, Streptomyces avermitilis. Conditions: pH 8, 37°C.

Substrate in data set [8]: CCCCCC(=O)Oc1ccc([N+](=O)[O-])cc1
Description: pNP release, initial rates, Michaelis-Menten fit. The format is biochemical, Pseudomonas aeruginosa. Conditions: pH 8, 37°C.

Substrate in data set [9]: CCCCCCCCCC(=O)Oc1ccc([N+](=O)[O-])cc1
Description: pNP release, initial rates, Michaelis-Menten fit. The settings on record: pH 8, 37°C. The format is biochemical, Pseudomonas aeruginosa.

Substrate in data set [10]: CC(=O)Oc1ccc([N+](=O)[O-])cc1
Description: pNP release, initial rates, Michaelis-Menten fit. Conditions: pH 8, 37°C. The format is biochemical, Pseudomonas aeruginosa.

Substrate in data set [11]: CCC(=O)Oc1ccc([N+](=O)[O-])cc1
Description: pNP release, initial rates, Michaelis-Menten fit. The class given is biochemical, Pseudomonas putida.

Substrate in data set [12]: CC(=O)Oc1ccc([N+](=O)[O-])cc1
Description: pNP release, initial rates, Michaelis-Menten fit. The format is biochemical, Pseudomonas putida.

Substrate in data set [13]: CCCCCC(=O)Oc1ccc([N+](=O)[O-])cc1
Description: pNP release, initial rates, Michaelis-Menten fit. The class given is biochemical, Rhodopseudomonas palustris. Conditions: pH 9, 37°C.

Substrate in data set [14]: CCCC(=O)Oc1ccc([N+](=O)[O-])cc1
Kind of data set: pNP release, initial rates, Michaelis-Menten fit. The format is biochemical, Rhodopseudomonas palustris. Conditions: pH 9, 37°C.

Substrate in data set [15]: CCCCCC(=O)Oc1ccc([N+](=O)[O-])cc1
Kind of data set: pNP release, initial rates, Michaelis-Menten fit. The format is biochemical, Pseudomonas putida. Conditions: pH 8, 37°C.

Substrate in data set [16]: CCCCCCCCCC(=O)Oc1ccc([N+](=O)[O-])cc1
Description: pNP release, initial rates, Michaelis-Menten fit. The settings on record: pH 8, 37°C. The class given is biochemical, Pseudomonas putida.

For eight molecules, Km, kcat and kcat/Km results are on record in publication PMC3815341.

As to “RpEST-1 (Rhodopseudomonas palustris CGA009)”, the Michaelis-Menten constant (Km) came out at 300 ± 0 µM in data set [1], 500 ± 0 µM in data set [2], 1900 ± 100 µM in data set [3] and 1500 ± 100 µM in [4]. In addition, the kcat was determined as 65.6 ± 1.5 s⁻¹ in data set [1], 75.5 ± 1.6 s⁻¹ in data set [2], 217 ± 11.8 s⁻¹ in [3] and 307 ± 15.3 s⁻¹ in data set [4]. The kcat/Km in data set [1] was found to be 219000 M⁻¹ s⁻¹; in data set [2], 151000 M⁻¹ s⁻¹; in data set [3], 114000 M⁻¹ s⁻¹; in [4], 205000 M⁻¹ s⁻¹.

B1: RpEST-2 (Rhodopseudomonas palustris CGA009) (protein)
chain: MSEAVMAGAEAFAFDGGKTGVLLVHGFTGSPQSMRYLGERLGERGYSILGPRLPGHGVSPAAMAKTTANDWVNCAEDALLELSAKCDKTFVAGLSMGGTLSLYLAASHPDKVAGVIPINAAVQIDSPDLAGLAYARGLPEFVPGIGSDMVDTSTKELAYDQVPVTCVKQVMGLAATARALLPRIKCPTLVINSRVDHVLSPANATVIANHVGSSRIETLWLDNSYHVATIDNDKDLIAAEIDSFVTRNL
On to B1, for which, in data set [5], the Km was 4900 ± 1800 µM, the kcat stood at 24.4 ± 7.8 s⁻¹ and the kcat/Km turned out to be 4900 M⁻¹ s⁻¹. In data set [6], the Km came to 1400 ± 200 µM, the kcat was determined as 52.7 ± 4.3 s⁻¹ and the kcat/Km was 37600 M⁻¹ s⁻¹.

B2: SavEST-1 (Streptomyces avermitilis MA-4680 = NBRC 14893) (protein)
chain: MTSQHVVGRFFDVQGGQVYAHVREGDGPALIFLHYWGGSRRTWIPVLQRLDPGQGFVAYDQRGWGGSTSVPGPYDLEQLADDAQRVVDALGYSRYVLVGHSMGGKVAQILAARKPAGLRGVVLVAPAPPAPIGVTEQVQETVSHAYDNEEAVLQSIDLMLTRGGLTPELRRQVVEDSLRGGDEARLEWPRRGLVQDVSAGVSAIEVPVLVLAGSHDKVDPPTVLADHLLPLIPTATLTVLKDTGHLSPLEVPDQVAAHIGAFVAQL
With B2, in data set [7], the Km worked out at 300 ± 0 µM, the kcat came out at 2.9 ± 0.1 s⁻¹ and the kcat/Km was 9500 M⁻¹ s⁻¹.

B3: PaEST-1 (Pseudomonas aeruginosa) (protein)
chain: MKRFLLGLVLLLAVAAGVLYFVPATLLASVRTVERGLAGLSEHSVQVDNLEIAYLEGGSEKNPTLLLIHGFGADKDNWLRFARPLTERYHVVALDLPGFGDSSKPQQASYDVGTQAERVANFAAAIGVRRLHLAGNSMGGHIAALYAARHPEQVLSLALIDNAGVMPARKSELFEDLERGENPLVVRQPEDFQKLLDFVFVQQPPLPAPLKRYLGERAVAASAFNAQIFEQLRQRYIPLEPELPKIEAPTLLLWGDRDRVLDVSSIEVMRPLLKRPSVVIMENCGHVPMVERPEETAQHYQAFLDGVRNAQVAGR
On to B3, for which, in [8], the Michaelis-Menten constant (Km) was found to be 1400 ± 400 µM, the kcat was found to be 12.9 ± 2.4 s⁻¹ and the kcat/Km stood at 9200 M⁻¹ s⁻¹. For the same molecule, in data set [9], the Michaelis constant (Km) was determined as 1200 ± 200 µM, the kcat came out at 9.2 ± 1 s⁻¹ and the kcat/Km stood at 7600 M⁻¹ s⁻¹. In [10], the Michaelis constant (Km) stood at 1400 ± 200 µM, the kcat is 1.9 ± 0.2 s⁻¹ and the kcat/Km was 1300 M⁻¹ s⁻¹.

B4: PpEST-2 (Pseudomonas putida KT2440) (protein)
chain: MSTFVTRDGTSIYFKDWGSGKPVLFSHGWPLDADMWDSQMEFLASRGYRAIAFDRRGFGRSSQPWNGYDYDTFADDIAQLIEHLDLRDVTLVGFSMGGGDVSRYIARHGSERVAGLVLLGAVTPVFGKRDDNPDGVDLSVFEGIRAGLRADRAQFIADFATPFYGLNHGQQVSQGVQTQTLNIALMASIKGTLDCVTAFSETDFRPDMAKVDVPTLVIHGDDDQIVPFETTGKQAAELIRGAELKVYAGAPHGFAVTHAQQLNEDLLAFLQR
Take B4: in [11] (pH 9, 37°C), the Km was determined as 1000 ± 100 µM, the turnover number (kcat) was determined as 3 ± 0.1 s⁻¹ and the kcat/Km worked out at 3000 M⁻¹ s⁻¹. Also, in data set [12] (pH 9, 37°C), the Km was 1100 ± 100 µM, the kcat stood at 12.5 ± 0.5 s⁻¹ and the kcat/Km was found to be 11400 M⁻¹ s⁻¹.

B5: RpEST-3 (Rhodopseudomonas palustris CGA009) (protein)
chain: MPSFDHAGVNIAYLDEGEGEPILLIHGFASNKNVNWVYPSWLSELKRTGRRVIAIDNRGHGESSKLYDPNDYTLEAMASDAVALMDHLGIARADVMGYSMGARIGANLARRQEQRVRSVVLGGLGMGLLSNEGRPGENVARALEADALDDVTDPVGRTFRAFADQTRSDRKALAACMRGSRGLMSREDAAQIAVPVLIAVGTDDDVAGSAHELGDIIPGSQVLDIPRRDHMRAVGDRVYKEGVVDFLARRP
Consider B5, for which, in [13], the Michaelis-Menten constant (Km) turned out to be 2100 ± 300 µM, the kcat stood at 5 ± 0.4 s⁻¹ and the kcat/Km stood at 2400 M⁻¹ s⁻¹. Besides, in data set [14], the Km was determined as 3600 ± 400 µM, the kcat is 7.2 ± 0.7 s⁻¹ and the kcat/Km was 2000 M⁻¹ s⁻¹.

B6: PpEST-3 (Pseudomonas putida KT2440) (protein)
chain: MIQPVAERTPAGTSYLDVGQGQPVVLIHGVGLNKEMWGGQFVGLANDYRVIAYDMLGHGQSRVPAADTPLEGYADQLAELLDHLQIAQATVIGFSMGGLVARAFALNYPQRLAALVVLNSVFNRTPEQSAGVIARAAQAAELGPDANVDAALDRWFSREYKAANPAQVAAIRQVLASNDPQGYHTTYSLFATQDMYRADDLGSIQVPTLIATGELDSGSTPAMTRQLAACIPGARSVVLAEQRHMMPVEAPREVNKMLLDFLTQARTLTESAKGIVA
For B6, the Km in [15] was 200 ± 0 µM; in [16], 800 ± 100 µM; in data set [11] (pH 8, 37°C), 100 ± 0 µM; in data set [12] (pH 8, 37°C) it was 1000 ± 100 µM. For the same molecule, the kcat amounted to 12.1 ± 0.3 s⁻¹ in [15]; 8.7 ± 0.4 s⁻¹ in data set [16]; 6.8 ± 0.1 s⁻¹ in data set [11] (pH 8, 37°C); 6.2 ± 0.3 s⁻¹ in data set [12] (pH 8, 37°C). In addition, the specificity constant (kcat/Km) in data set [15] worked out at 60400 M⁻¹ s⁻¹; in data set [16], 10900 M⁻¹ s⁻¹; in data set [11] (pH 8, 37°C) it was 67900 M⁻¹ s⁻¹; in data set [12] (pH 8, 37°C) it was 6200 M⁻¹ s⁻¹.

B7: PpEST-1 (Pseudomonas putida KT2440) (protein)
chain: MRNRLVLLPGWGLGTAALEPLAASLRAQDARLQVELMPLPELAHSDVQAWIDHLDRKLPNDVWLGGWSLGGMLASALAHKRGDHCCGLLTLASNPSFLARPDWPHGMAEDTFGTFLDGCRNHTQVTLKRFRTLCSDGALQPRTLLRQLGVGVPETDPLYLATGLEVLAKLDTREALQAYDGPQLHLFAGSDALVPAEAAKALSELLPDVEVGMVEDSSHAFLLEYPQELAAGIKSFLHESGDD
On to B7, for which, in data set [11] (pH 8, 37°C), the Km amounted to 3000 ± 400 µM, the kcat came out at 3.1 ± 0.3 s⁻¹ and the catalytic efficiency (kcat/Km) was found to be 1000 M⁻¹ s⁻¹. Also, in data set [12] (pH 8, 37°C), the Km came to 1400 ± 100 µM, the kcat stood at 3.9 ± 0.2 s⁻¹ and the specificity constant (kcat/Km) came out at 2800 M⁻¹ s⁻¹.

As a reminder, the Km is the concentration of substrate that gives half-maximal velocity. The kcat is the maximal rate divided by the concentration of active sites. In general, kcat/Km refers to the second-order rate constant that governs catalysis at low substrate concentration.
